The test deals with T1, mouse ADAMTS7 (Mus musculus, UniProt Q68SA9).
T1 construct: Full-length mouse Adamts7 1-1857 (Uniprot Q68SA9, WT or E373Q catalytic mutant); expressed in transfected cells; host or cells: Human Coronary Artery Smooth Muscle Cells (HCA-SMC, Lonza), adenovirus 50 MOI
T1 sequence (Q68SA9 221-1657): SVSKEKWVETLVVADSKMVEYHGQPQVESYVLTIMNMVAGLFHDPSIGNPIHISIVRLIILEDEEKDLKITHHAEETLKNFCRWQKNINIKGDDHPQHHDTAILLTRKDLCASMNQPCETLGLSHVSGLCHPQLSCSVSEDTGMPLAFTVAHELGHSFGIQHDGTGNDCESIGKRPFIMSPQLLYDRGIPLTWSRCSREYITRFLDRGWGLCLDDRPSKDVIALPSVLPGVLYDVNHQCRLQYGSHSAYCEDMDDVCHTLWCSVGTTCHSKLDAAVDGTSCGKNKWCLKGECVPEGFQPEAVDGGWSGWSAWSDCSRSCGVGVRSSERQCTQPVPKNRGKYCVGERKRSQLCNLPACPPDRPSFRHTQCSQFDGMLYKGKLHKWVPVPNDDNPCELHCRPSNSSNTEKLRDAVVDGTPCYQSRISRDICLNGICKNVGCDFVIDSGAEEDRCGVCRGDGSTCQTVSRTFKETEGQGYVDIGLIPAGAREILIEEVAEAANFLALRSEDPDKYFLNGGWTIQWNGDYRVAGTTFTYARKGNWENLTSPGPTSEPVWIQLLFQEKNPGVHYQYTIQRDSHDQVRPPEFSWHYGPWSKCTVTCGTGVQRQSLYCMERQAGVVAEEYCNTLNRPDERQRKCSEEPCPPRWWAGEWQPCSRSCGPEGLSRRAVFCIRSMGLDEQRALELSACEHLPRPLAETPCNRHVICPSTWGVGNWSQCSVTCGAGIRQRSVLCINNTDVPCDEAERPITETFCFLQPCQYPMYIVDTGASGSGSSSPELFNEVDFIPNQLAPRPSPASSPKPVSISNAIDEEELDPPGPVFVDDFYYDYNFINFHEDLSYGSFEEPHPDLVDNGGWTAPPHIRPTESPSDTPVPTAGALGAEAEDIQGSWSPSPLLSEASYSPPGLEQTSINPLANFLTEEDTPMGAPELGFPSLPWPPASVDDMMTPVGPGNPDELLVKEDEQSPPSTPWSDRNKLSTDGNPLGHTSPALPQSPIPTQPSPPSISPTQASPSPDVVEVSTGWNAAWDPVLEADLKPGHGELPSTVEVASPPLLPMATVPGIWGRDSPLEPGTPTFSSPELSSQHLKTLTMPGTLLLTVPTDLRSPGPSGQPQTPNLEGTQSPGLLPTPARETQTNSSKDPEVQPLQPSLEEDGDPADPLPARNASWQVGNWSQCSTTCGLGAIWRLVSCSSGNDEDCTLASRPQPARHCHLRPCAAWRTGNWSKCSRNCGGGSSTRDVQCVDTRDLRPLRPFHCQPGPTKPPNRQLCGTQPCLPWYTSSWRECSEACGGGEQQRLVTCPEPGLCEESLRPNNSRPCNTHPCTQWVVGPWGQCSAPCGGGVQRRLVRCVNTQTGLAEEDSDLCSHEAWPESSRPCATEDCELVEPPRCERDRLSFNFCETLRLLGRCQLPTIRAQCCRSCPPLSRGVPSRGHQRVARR
Description: TMT10 TAILS N-terminomics, HUVEC experiment (process replicates, trypsin/AspN digest). The test is classed as cell-based, human. Particulars: HUVEC TAILS HC; log fold change of N-terminal peptide, Ad-mADAMTS7 WT over Luc. From the text:
ADAMTS7 Expression, Cell Culture and Preparation of the Secreted Proteins—Full-length mouse Adamts7 1-1857 (Uniprot Q68SA9, WT or E373Q catalytic mutant) with a carboxyl terminal 3xFLAG tag was used to generate custom adenoviruses as previously described. Adeno-CMV-Luciferase (Ad-Luc) from Vector Biolabs was used as a negative control. Human Coronary Artery Smooth Muscle Cells (HCA-SMC) were obtained from Lonza and expanded in Lonza SmGM-2 media in 15 cm tissue culture plates. Twenty-four hours before media collection, near confluent plates were transduced with 50 MOI adenovirus and switched to Lonza Basal SM media with volumes of 20 ml per 15 cm plate. Expression of the Flag tagged ADAMTS7 was confirmed from the media using western blot and detected using the anti-Flag M2-HRP antibody (Sigma, A8592). Collected media was processed by adding protease inhibitors (1 mM EDTA and 1 mM PMSF) and clarified by 500 g×5 min spin at 4 C to pellet cell debris. Cell media supernatants were then passed through a 0.22 um filter and kept chilled. Processed media was then concentrated 50-100× using 3 kDa Centricon Plus-70 filter unit, spun at 3,500 g×60 min at 4 C. Approximately 10% of the processed, concentrated media was set aside for total secretome proteolytic analysis. The remaining 90% of the processed, concentrated media was buffer exchanged into 50 mM HEPES pH 8.0, 150 mM NaCl (2×50 ml) using the 3 kDa Centricon Plus-70 filter unit and concentrated to >2 mg/ml to serve as input for the TAILS experiment. Secretome and TAILS input samples were stored at −80° C.
For the first experiment, referred to as SMC1, 120 ml of media from 6×15 cm dishes was pooled from each condition (Luc, WT, EQ) and processed to produce three separate inputs for the TAILS experiment. Luc, WT and EQ inputs from the SMC1 experiment were each divided into triplicate 400 ug samples to generate technical replicate TAILS data. For the second experiment, referred to as SMC2, media was processed separately in triplicate for each condition (Luc1, Luc2, Luc3, WT1, WT2, WT3, EQ1, EQ2, EQ3) using 60 ml of media from 3×15 cm dishes for each process replicate. Inputs from the SMC2 experiment used process replicates of 300 ug each to generate TAILS data. The third experiment used input from cultured Human umbilical vein endothelial cells (HUVEC) from Lifeline Cell Technology grown in VascuLife Media and transduced in Lifeline Basal EC (+bFGF2 10 ng/ml). The HUVEC experiment used the same strategy as the SMC2 experiment, with 40 ml of media from 2×15 cm dishes for each process replicate and used 200 ug each to generate TAILS data. Inputs for process replicate experiments were restricted to the lowest concentration from the 9 parallel samples for SMC2 or HUVEC.
TMT10 isotopic labeling and negative selection of non-labeled peptides-Sample preparation was performed based on the TAILS protocol from the Overall lab with some modifications. From a single experiment, nine parallel protein samples in 50 mM HEPES pH 8.0, 150 mM NaCl were separately denatured with guanidinium chloride (Sigma, G4505) to reach a final concentration of 2.5M guanidinium chloride and 250 mM HEPES and incubated at 65° C. for 15 min. Reduction was achieved through addition of tris(2-carboxylethyl) phosphine (TCEP) at a final concentration of […] and incubated at 65° C. for 45 min. Alkylation reaction was performed with addition of iodoacetamide (IAA, Sigma, A3221) to a final concentration of 10 mM IAA for 15 min at room temperature in the dark. Following denaturation, reduction and alkylation steps, ten percent of each of the nine parallel protein samples was removed and combined to serve as a pooled reference. Isobaric tags were added to free amine groups using the TMT10plex Isobaric Mass Tagging Kit (ThermoFisher, 90113) with TMT channels randomly assigned to the nine samples and TMT 131 assigned to the pooled reference. […]
In the case of “AEBP1_37 (FLEGFLSELEPEPR; listed as Homo sapiens)”, the logFC.mWT.over.Luc was 3.77.
“EFEMP1_124 (AVAGPEMQTGR; listed as Homo sapiens)” yielded a logFC.mWT.over.Luc of 2.92.
On to “FBN1_29 (LEAGNVKETR; listed as Homo sapiens)”, for which the logFC.mWT.over.Luc worked out at 3.57.
In turn, “FLNA_1285 (LTQTGGPHVKAR; listed as Homo sapiens)” had a logFC.mWT.over.Luc of 3.29.
Consider “FN1_36 (MVQPQSPVAVSQSKPGCYDNGKHYQINQQWER; listed as Homo sapiens)”, for which the logFC.mWT.over.Luc is given as 2.98.
Under “FN1_40 (QSPVAVSQSKPGCYDNGKHYQINQQWER; listed as Homo sapiens)” stands 2.45; under “FN1_886 (NQESTPVVIQQETTGTPR; listed as Homo sapiens)”, 1.61.
As to “FN1_1143 (LTPGVEYVYTIQVLR; listed as Homo sapiens)”, the logFC.mWT.over.Luc turned out to be 3.43.
Take “FN1_1656 (SSSPVTGYR; listed as Homo sapiens)”: the logFC.mWT.over.Luc came out at 1.56.
As to “HSPG2_2331 (ANLAYPAGSTQPIR; listed as Homo sapiens)”, the logFC.mWT.over.Luc turned out to be 1.72.
In turn, “IGFBP7_101 (AAGGPGVSGVCVCKSR; listed as Homo sapiens)” showed a logFC.mWT.over.Luc of 1.86.
Turning to “LOXL2_37 (FQQPAPEYHQPQAPANVAKIQLR; listed as Homo sapiens)”, the logFC.mWT.over.Luc turned out to be 2.82.
Consider “LOX_124 (WFQAGYSTSR; listed as Homo sapiens)”, for which the logFC.mWT.over.Luc worked out at 3.38.
“LTBP1_393 (LTATNFR; listed as Homo sapiens)” returned a logFC.mWT.over.Luc of 3.14.

Source of the values: patent publication US20240368668A1, “SUBSTRATES AND BIOMARKERS OF ADAMTS7” (The Broad Institute, Inc., priority 2021, published 2024).
